Assays:
hen egg lysozyme (hen) [1] = biological target: hen egg lysozyme (hen) (UniProt P00698); experiment: BIAcore, HEL coated chip
hen egg lysozyme (hen) [2] = biological target: hen egg lysozyme (hen) (UniProt P00698); experiment: phage ELISA with 50 µl phage supernatant, sheep anti-M13 detection; background 0.1

Sequence of UniProt P00698 (P00698 19-147 limits assumed): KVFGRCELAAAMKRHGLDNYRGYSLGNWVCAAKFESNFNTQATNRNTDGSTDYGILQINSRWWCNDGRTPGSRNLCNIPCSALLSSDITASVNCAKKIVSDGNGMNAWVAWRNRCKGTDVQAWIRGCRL

Substance	koff (hen egg lysozyme (hen) [1])	absorbance signal (hen egg lysozyme (hen) [2])
bispecific NQ11/D1.3 diabody, construct VI, 5 residue linkers (bispecific antibody)	0.0022 s⁻¹	–
NQ11/D1.3/0 bispecific diabody displayed on the surface of phage (bispecific antibody)	–	2.8
chimaeric D1.3 Fab fragment	0.003 s⁻¹	–

Reference: US7122646
